Molecular target: SARS-CoV-2 spike-protein trimers
Assay: SEC + other: negative-stain electron microscopy

SARS-CoV-2 spike-protein trimers
stoichiometry N: 3

Source: publication PMC10197516
